The target of data set [1] is T1, ToPif1 (wild type) (Thermus oshimai, UniProt K7RJ88 64-507).
T1 sequence: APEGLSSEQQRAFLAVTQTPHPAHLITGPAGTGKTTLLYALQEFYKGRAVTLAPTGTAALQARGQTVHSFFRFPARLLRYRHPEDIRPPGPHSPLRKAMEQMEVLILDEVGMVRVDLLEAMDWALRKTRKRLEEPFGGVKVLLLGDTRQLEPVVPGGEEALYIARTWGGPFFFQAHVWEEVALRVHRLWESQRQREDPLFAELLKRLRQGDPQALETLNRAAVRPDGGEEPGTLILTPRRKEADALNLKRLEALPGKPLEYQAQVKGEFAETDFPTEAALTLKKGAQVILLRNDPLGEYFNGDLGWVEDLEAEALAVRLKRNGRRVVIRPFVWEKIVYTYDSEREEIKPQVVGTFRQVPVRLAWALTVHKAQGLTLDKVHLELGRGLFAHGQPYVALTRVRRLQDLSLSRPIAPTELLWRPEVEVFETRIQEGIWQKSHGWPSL
Put plainly: fluorescence anisotropy. For orientation: Fluorescence polarisation rises when a labelled molecule tumbles more slowly, as on binding a larger partner.

Data set [2] deals with T1, ToPif1 (wild type). Put plainly: fluorescence anisotropy. The source holds these as a separate data set.
The target in data set [3] is T1, ToPif1 (wild type). Put plainly: fluorescence anisotropy. The source holds these as a separate data set.
The target of data set [4] is T2, ToPif1 (wild type), crystal (Thermus oshimai, UniProt K7RJ88 64-507).
T2 sequence: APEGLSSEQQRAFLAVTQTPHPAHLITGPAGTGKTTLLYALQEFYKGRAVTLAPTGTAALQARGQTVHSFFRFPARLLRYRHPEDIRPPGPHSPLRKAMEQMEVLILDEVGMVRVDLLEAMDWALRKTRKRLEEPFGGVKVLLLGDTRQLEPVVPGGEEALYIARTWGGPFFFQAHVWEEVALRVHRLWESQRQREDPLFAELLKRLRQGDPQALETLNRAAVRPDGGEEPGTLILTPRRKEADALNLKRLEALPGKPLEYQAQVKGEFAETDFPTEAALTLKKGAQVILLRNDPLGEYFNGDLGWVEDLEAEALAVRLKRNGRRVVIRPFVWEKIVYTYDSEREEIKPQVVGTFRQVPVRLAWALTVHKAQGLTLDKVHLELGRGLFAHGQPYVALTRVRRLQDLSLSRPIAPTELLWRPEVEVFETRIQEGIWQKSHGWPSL
Nature of the data set: X-ray crystallography.

For data set [5], the target named is T1, ToPif1 (wild type). Put plainly: fluorescence anisotropy. The source holds these as a separate data set.

Where two headings read alike, the source gives them in different places.

B1: G4CEB (structured_DNA)
DNA: AGGGTGGGTGGGTGGG
With B1, the dissociation constant (Kd) (as a rule, the concentration at which binding is half-saturated) in the data set with ToPif1 (wild type) [1] was 30.3 ± 1.17 nM; with ToPif1 (wild type) [2], 30.9 ± 2.32 nM; with ToPif1 (wild type) [3], about 23.3 nM.

B2: G4T6/T8 (structured_DNA)
DNA: TTTTTTGGGTGGGTGGGTGGGTTTTTTTT
As to B2, in data set [4], the binding result is on record as “binds”.

B3: T12 (ssDNA)
DNA: TTTTTTTTTTTT
As to B3, the dissociation constant Kd in the data set with ToPif1 (wild type) [1] was 29.1 ± 0.53 nM; with ToPif1 (wild type) [3], about 29.1 nM; with ToPif1 (wild type) [5], 26.5 ± 0.71 nM.

B4: G4Tel (structured_DNA)
DNA: GGGTTAGGGTTAGGGTTAGGG
For the molecule B4, the equilibrium dissociation constant (Kd) in the data set with ToPif1 (wild type) [3] was about 29.6 nM.

For the origin of these results see article doi:10.1101/2021.08.24.457465.
